Test results: patent US20250313632A1
Changes are numbered by the printed parent chain.

B1: 97E6B2 (antibody, V domains shown)
VH: QVQLQQPGAELVKPGASVKMSCKASGYTFTSYWITWVKQRPGQGLEWIGDIYPGSNNTYYNEKFKSKATLTVDTSSSTAYIQLSSLTSEDSAVYYCARLIMSLFDYSGQGTTLTVSS
VL: ENVLTQSPANMSASPGEKVTMTCSVSSSVSYIHWYQQKSSTSPTLWIYDTSKLASGVPGRFSGSGSGNSYALTISSMEAEDVATYYCFQGSAYPLTFGAGTKLELK
B2: 294A3C4 (antibody, V domains shown)
VH: QVQLQQPGAELVKPGASVKLSCKASGYTFTSYWMHWVKQRPGQGLEWIGMFHPNSGTTNYNEKFKSKATLTVDKSSSTAYMQLSSLTSEDSAVYYCARRLGIFFDYWGQGTTLTVSS
VL: DIVMTQSPSSLTVTAGEKVTMSCRSSQSLLNSGNQKNYLTWYQQKPGQPPKLLIYWASTRDSGVPDRFTGSGSGTDFTLTISSVQTEDLAVYYCQTDYSYPFTFGSGTKLEIK
B3: 227E12D1 (antibody, V domains shown)
VH: EVKLVESGGGLVKPGGSLKLSCAASGFTFSSYGMSWVRQTPEKRLEWVATISGGGTYTYYPDSVKGRFTISRDNAKNNLYLQMSSLRSDDTALYYCARHEGLVMDYWGQGTSVTVSS
VL: DIQMTQSPASLSASVGETVTITCRASENIYSYLAWYQQKQGKSPQLVVYNAKTLAEGVPSRFSGSGSGTQFSLKINSLQPEDFGTYYCQHHYGPPPYTFGGGTKLEIK
B4: 106A5B3 (antibody, V domains shown)
VH: EVQLVESGGDLVKPGGSLKLSCAASGFTFSSYGMSWVRQTPDKRLEWVATISSGGSYIYYPDSMKGRFTISRDNAKNTLYLQMSSLQSEDTAIYYCASDYGSRYFDYWGQGTTLTVSS
VL: QIVLTQSPAIMSASPGEKVTMTCSASSSVIYMSWYKQKPGSSPRLLIYDTSNLASGVPVRFSGSGSGTSYSLTISRMEAEDAATYYCQQWSSYPRTFGGGTKLEIK
B5: 216E7A9 (antibody, V domains shown)
VH: DVQLVESGGGLVQPGGSRKLSCAASGFTFSSFGMHWVRQAPEKGLEWVAYISSGSSTIYYADTVRGRFTISRDNPKNTLFLQMTSLRSEDTAMYYCARGGDYYYALDYWGQGTSVTVSS
VL: DIQMTQSPASLSVSVGETVTITCRASENIHSNLEWYQQKQGKSPQLLVYAATNLADGVPSRFSGSGSGTQYSLKINSLQSEDFGSYYCQHFWGTPFTFGSGTKLEIK
B6: 126C10B10 (antibody, V domains shown)
VH: GVQLQQSGAELVKPGASVKLSCTGSGFNIKDPYIHWVKQRPEQGLEWIGRIDPANGNTKYGPRFQGRATMTADTSSNTANLQLSSLTSEDTAVYYCTTWNYYLSRGFDYWGQGTTLTVSS
VL: QIVLTQSPAIMSASPGEKVTMTCSARSSVTYMHWYQQKSGTSPKRWIYDTSKLASGVPARFSGSGSGTSYSLTISSMEAEDAATYYCQQWTSNPLTFGAGTKLELK
B7: 62H9H5 (antibody, V domains shown)
VH: QVQLQQSGAELAKPGASVKMSCKASGYTFTNYWIHWVKQRPGQGLEWIGYISPSTGYTEYNQKFKGKATLTAVKSSSTAFMQLSSLTSEDSAVYFCARGTGYWGQGTTLTVSS
VL: DIQMTQSPASLSASVGESVTITCRASENIYSFFAWYQQKEGKSPQLLVYNAKTLEEGVPSRFSGSGSGTQFSLKINSLQPEDFGSYYCQHNYVSPFTFGSGTKLEIK
B8: AHP06358 (antibody, V domains shown)
VH: EVQLVQSGAEVKKPGASVKVSCKASGYTFTSYGISWVRQAPGQGLEWMGWISAYNGNTNYAQKLQGRVTMTTDTSTSTAYMELRSLRSDDTAVYYCARDSPLQIAVAGYYYGMDVWGQGTTVTVSS
VL: NFMLTQPHSVSESPGKTVTISCTRSSGSIVSGYVQWYQQRPGSAPSTVIYEHNQRPSGVPDRFSGSIDSSSNSASLTISGLRTEDEADYYCQSYDSRNMIFGGGTKLTVL
B9: 72D1D11-z1 (antibody, V domains shown)
VH: QVQLVQSGSELKKPGASVKVSCKASGYTFTNLGLNWVRQAPGQGLEWMGWINTAGGQPTYAEDFKGRFVFSLDTSVSTAYLQISSLKAEDTAVYYCARDDGYYYTMDYWGQGTTVTVSS
VL: DIVMTQTPLSLPVTPGEPASISCRSSQSLVHSNGKTYLHWYLQKPGQSPQLLIYKVSNRFSGVPDRFSGSGSGTDFTLKISRVEAEDVGVYYCSQSTHVPWTFGGGTKLEIK
B10: 72D1D11-z2 (antibody, V domains shown)
VH: B9 VH
VL: B9 VL with Y92F
B11: 72D1D11-z4 (antibody, V domains shown)
VH: B9 VH
VL: B9 VL with T7S, Y92F
B12: 72D1D11-z6 (antibody, V domains shown)
VH: B9 VH with F68C
VL: B9 VL with Y92F
B13: 72D1D11-z7 (antibody, V domains shown)
VH: B9 VH with F68C
VL: B9 VL with T7S
B14: 72D1D11-z5 (antibody, V domains shown)
VH: B9 VH with F68C
VL: B9 VL
B15: 72D1D11-z3p2 (antibody, V domains shown)
VH: B9 VH
VL: B9 VL with T7S, N33Q
B16: 72D1D11-z3p1 (antibody, V domains shown)
VH: B9 VH
VL: B9 VL with T7S, G34A

These binders were tested against human B7-H3 protein (human) (UniProt Q5ZPR3) (assay: Octet (BLI) epitope binning on captured human B7-H3; competitor CA84D).

inhibition ratio	Binder
-3.99%	B1
-12%	B2
-5.46%	B3
-15.8%	B4
5.28%	B5
-9.58%	B6
-6.07%	B7
-13.6%	B8

Each binder was assayed against human B7-H3 protein (human) (UniProt Q5ZPR3) (assay: Octet (BLI) epitope binning on captured human B7-H3; competitor AHP06345).

inhibition ratio	Binder
-1.18%	B1
-7.53%	B2
-5.22%	B3
-13%	B4
1.99%	B5
-5.98%	B6
-7.1%	B7
-10.6%	B8

The binders below were run against human B7-H3 expressed on A375 tumor cells (human) (UniProt Q5ZPR3) (assay: flow cytometry on A375 cells, MFI(PE); unit from the axis Conc (nM)).

EC50	Binder
0.63 nM	B9
0.52 nM	B10
0.49 nM	B11
0.54 nM	B12
0.52 nM	B13
0.51 nM	B14

Each binder was assayed against human B7-H3 protein (human) (UniProt Q5ZPR3) (assay: Octet (BLI) epitope binning on captured human B7-H3; competitor 72D1D11).

inhibition ratio	Binder
99.7%	B1
-5%	B2
97.1%	B3
96.8%	B4
98%	B5
96.6%	B6
95.5%	B7
-13.9%	B8

What follows are binders tested against human B7-H3 protein (human) (UniProt Q5ZPR3) (assay: Octet (BLI) epitope binning on captured human B7-H3; competitor AHP05562).

inhibition ratio	Binder
-7.8%	B1
90%	B2
90%	B3
89.6%	B4
92.3%	B5
-22.2%	B6
90.2%	B7
91.7%	B8

Target: human B7-H3 expressed on A375 tumor cells (human) (UniProt Q5ZPR3)
Experiment: flow cytometry on A375 cells, MFI(PE); unit from the axis Conc (nM)
Remark: another data set of the same source

EC50	Binder
0.26 nM	B1
0.087 nM	B2
0.3 nM	B15
0.36 nM	B16
0.093 nM	B3
0.1 nM	B4
0.08 nM	B5
0.22 nM	B6
0.042 nM	B7
2.4 nM	B8

What follows are binders tested against human B7-H3 (4Ig) protein (his tag) (human) (UniProt Q5ZPR3) (assay: SPR (Biacore T200), antibody captured on Protein A chip, B7-H3 injected, 1:1 model).

Kd	koff	kon	Binder
0.743 nM	0.000481 s⁻¹	647000 M⁻¹ s⁻¹	B1
2.92 nM	0.00135 s⁻¹	463000 M⁻¹ s⁻¹	B2
0.619 nM	0.000368 s⁻¹	595000 M⁻¹ s⁻¹	B3
0.476 nM	0.000396 s⁻¹	833000 M⁻¹ s⁻¹	B4
2.49 nM	0.000824 s⁻¹	331000 M⁻¹ s⁻¹	B5
0.837 nM	0.000367 s⁻¹	438000 M⁻¹ s⁻¹	B6
0.464 nM	0.00016 s⁻¹	346000 M⁻¹ s⁻¹	B7
0.738 nM	0.00396 s⁻¹	5.37e+06 M⁻¹ s⁻¹	B8
